According to IntAct's records for PubMed 35512704:

B1: Speckle-type POZ protein (Homo sapiens), O43791 (parent)
chain: MSRVPSPPPPAEMSSGPVAESWCYTQIKVVKFSYMWTINNFSFCREEMGEVIKSSTFSSGANDKLKWCLRVNPKGLDEESKDYLSLYLLLVSCPKSEVRAKFKFSILNAKGEETKAMESQRAYRFVQGKDWGFKKFIRRDFLLDEANGLLPDDKLTLFCEVSVVQDSVNISGQNTMNMVKVPECRLADELGGLWENSRFTDCCLCVAGQEFQAHKAILAARSPVFSAMFEHEMEESKKNRVEINDVEPEVFKEMMCFIYTGKAPNLDKMADDLLAAADKYALERLKVMCEDALCSNLSVENAAEILILADLHSADQLKTQAVDFINYHASDVLETSGWKSMVVSHPHLVAEAYRSLASAQCPFLGPPRKRLKQS
partner: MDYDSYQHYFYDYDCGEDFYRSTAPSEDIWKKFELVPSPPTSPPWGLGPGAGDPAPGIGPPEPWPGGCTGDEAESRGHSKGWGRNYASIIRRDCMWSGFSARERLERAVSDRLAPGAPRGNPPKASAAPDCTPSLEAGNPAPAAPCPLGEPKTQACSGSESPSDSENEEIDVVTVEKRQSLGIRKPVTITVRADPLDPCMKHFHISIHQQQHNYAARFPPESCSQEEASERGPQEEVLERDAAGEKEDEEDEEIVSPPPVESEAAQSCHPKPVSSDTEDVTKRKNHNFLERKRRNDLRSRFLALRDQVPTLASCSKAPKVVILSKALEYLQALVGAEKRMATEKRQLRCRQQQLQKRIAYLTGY
B2: Speckle-type POZ protein (Homo sapiens), O43791 (parent)
chain: B1 chain
partner: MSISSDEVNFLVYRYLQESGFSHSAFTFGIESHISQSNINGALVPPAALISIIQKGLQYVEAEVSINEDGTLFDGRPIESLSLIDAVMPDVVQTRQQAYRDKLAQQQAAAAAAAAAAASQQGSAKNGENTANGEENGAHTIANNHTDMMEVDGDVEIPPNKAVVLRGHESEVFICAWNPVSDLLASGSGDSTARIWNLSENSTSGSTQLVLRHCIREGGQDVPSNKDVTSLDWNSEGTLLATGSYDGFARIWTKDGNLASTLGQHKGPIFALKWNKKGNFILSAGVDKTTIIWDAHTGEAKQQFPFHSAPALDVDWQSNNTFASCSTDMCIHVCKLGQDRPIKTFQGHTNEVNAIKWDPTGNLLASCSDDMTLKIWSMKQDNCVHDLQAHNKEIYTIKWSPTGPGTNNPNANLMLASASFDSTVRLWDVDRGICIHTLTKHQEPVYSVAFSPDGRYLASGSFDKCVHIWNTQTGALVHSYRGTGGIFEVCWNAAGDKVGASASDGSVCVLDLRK
B3: Speckle-type POZ protein (Homo sapiens), O43791 (parent)
chain: B1 chain
partner: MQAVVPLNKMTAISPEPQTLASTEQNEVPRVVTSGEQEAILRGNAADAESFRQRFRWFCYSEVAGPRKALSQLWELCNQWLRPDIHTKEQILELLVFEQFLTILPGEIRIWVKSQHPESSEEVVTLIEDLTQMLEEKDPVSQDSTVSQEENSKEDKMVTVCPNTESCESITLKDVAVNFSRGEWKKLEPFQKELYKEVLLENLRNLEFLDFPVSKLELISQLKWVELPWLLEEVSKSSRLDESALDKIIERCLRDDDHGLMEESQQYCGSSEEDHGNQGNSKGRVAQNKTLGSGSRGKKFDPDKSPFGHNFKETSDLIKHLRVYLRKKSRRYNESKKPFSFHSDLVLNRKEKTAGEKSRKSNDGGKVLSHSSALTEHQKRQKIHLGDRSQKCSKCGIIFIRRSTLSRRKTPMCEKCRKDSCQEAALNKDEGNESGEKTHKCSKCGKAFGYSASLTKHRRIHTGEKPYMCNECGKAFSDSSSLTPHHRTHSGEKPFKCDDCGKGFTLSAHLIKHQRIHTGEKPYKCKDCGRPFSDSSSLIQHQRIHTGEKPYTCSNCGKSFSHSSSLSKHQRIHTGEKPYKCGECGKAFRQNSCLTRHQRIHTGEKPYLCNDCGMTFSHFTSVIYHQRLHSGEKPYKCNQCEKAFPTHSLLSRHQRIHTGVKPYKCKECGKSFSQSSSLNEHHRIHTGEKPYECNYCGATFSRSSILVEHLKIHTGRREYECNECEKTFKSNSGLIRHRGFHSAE
B4: Speckle-type POZ protein (Homo sapiens), O43791 (parent)
chain: B1 chain
partner: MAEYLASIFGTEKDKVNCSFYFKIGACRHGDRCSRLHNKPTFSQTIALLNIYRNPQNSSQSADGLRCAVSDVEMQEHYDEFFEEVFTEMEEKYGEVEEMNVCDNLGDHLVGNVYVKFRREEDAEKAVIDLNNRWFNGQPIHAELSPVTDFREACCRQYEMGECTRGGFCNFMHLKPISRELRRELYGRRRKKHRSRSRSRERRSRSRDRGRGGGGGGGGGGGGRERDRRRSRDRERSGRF
B5: Speckle-type POZ protein (Homo sapiens), O43791 (parent)
chain: B1 chain
partner: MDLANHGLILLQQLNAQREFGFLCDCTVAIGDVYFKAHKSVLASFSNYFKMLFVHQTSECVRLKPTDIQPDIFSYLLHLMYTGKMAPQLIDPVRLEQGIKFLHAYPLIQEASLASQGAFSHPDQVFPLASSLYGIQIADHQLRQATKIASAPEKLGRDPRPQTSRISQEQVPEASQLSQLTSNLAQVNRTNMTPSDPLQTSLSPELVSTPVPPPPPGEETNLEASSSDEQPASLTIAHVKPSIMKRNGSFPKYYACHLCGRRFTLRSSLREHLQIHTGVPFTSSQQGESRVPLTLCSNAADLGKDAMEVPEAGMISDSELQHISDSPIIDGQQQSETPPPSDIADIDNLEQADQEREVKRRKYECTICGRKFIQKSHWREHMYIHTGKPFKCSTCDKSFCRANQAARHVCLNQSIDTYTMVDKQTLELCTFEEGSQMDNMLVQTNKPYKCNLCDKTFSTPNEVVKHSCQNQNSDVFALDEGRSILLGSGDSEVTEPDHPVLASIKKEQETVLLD
B6: Speckle-type POZ protein (Homo sapiens), O43791 (parent)
chain: B1 chain
partner: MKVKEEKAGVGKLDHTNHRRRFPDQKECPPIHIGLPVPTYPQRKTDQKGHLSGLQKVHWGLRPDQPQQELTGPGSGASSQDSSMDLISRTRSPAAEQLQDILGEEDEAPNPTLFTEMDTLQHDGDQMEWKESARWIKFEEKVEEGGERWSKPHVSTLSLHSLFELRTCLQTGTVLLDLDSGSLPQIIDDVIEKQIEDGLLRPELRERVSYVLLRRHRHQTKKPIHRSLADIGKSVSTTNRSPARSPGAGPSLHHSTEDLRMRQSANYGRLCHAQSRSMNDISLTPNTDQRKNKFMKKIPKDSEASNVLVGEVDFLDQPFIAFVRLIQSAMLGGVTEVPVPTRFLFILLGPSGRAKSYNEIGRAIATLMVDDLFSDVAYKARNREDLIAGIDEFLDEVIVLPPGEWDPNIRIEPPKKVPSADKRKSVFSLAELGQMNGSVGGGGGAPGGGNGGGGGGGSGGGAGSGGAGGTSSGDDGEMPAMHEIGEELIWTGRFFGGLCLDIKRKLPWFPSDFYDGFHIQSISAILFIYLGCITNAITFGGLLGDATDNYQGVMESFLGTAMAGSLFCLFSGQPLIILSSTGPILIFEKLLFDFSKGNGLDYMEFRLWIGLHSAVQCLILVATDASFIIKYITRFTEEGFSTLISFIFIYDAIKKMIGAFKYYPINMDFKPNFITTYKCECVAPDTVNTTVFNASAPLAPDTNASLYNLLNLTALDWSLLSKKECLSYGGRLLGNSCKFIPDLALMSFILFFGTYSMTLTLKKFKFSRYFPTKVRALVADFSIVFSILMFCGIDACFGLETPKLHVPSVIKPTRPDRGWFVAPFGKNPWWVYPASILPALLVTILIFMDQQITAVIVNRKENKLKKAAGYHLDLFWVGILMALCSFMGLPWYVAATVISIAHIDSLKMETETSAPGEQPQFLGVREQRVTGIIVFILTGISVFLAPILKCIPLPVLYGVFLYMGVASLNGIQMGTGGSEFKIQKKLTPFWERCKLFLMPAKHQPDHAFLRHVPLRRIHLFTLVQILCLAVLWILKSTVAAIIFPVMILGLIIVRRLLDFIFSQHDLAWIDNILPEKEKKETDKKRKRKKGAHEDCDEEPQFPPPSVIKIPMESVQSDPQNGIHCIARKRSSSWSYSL

Variants of: B1
Conditions: with mycl_human MYCL

Row | Variant | effect of a mutation on the interaction
1 | F133L | with no effect

Variants of: B2
Conditions: with tbl1r_human TBL1XR1, Q9BZK7

Row | Variant | effect of a mutation on the interaction
2 | Y87C | with no effect

Variants of: B2
Conditions: with tbl1r_human TBL1XR1, Q9BZK7
Remark: another data set of the same source

Row | Variant | effect of a mutation on the interaction
3 | F133L | with no effect

Variants of: B2
Conditions: with tbl1r_human TBL1XR1, Q9BZK7
Remark: another data set of the same source

Row | Variant | effect of a mutation on the interaction
4 | F133V | with no effect

Variants of: B2
Conditions: with tbl1r_human TBL1XR1, Q9BZK7
Remark: another data set of the same source

Row | Variant | effect of a mutation on the interaction
5 | F102C | with no effect

Variants of: B3
Conditions: with zn483_human ZNF483, Q8TF39

Row | Variant | effect of a mutation on the interaction
6 | Y87C | with no effect

Variants of: B4
Conditions: with U2AF1, Q01081

Row | Variant | effect of a mutation on the interaction
7 | Y87C | with no effect

Variants of: B4
Conditions: with U2AF1, Q01081
Remark: another data set of the same source

Row | Variant | effect of a mutation on the interaction
8 | F102C | with no effect

Variants of: B4
Conditions: with U2AF1, Q01081
Remark: another data set of the same source

Row | Variant | effect of a mutation on the interaction
9 | F133V | with no effect

Variants of: B4
Conditions: with U2AF1, Q01081
Remark: another data set of the same source

Row | Variant | effect of a mutation on the interaction
10 | F133L | with no effect

Variants of: B5
Conditions: with zbtb2_human ZBTB2, Q8N680

Row | Variant | effect of a mutation on the interaction
11 | Y87C | with no effect

Variants of: B5
Conditions: with zbtb2_human ZBTB2, Q8N680
Remark: another data set of the same source

Row | Variant | effect of a mutation on the interaction
12 | F133L | with no effect

Variants of: B5
Conditions: with zbtb2_human ZBTB2, Q8N680
Remark: another data set of the same source

Row | Variant | effect of a mutation on the interaction
13 | F133L | causing an interaction

Variants of: B5
Conditions: with zbtb2_human ZBTB2, Q8N680
Remark: another data set of the same source

Row | Variant | effect of a mutation on the interaction
14 | F133V | causing an interaction

Variants of: B6
Conditions: with s4a5_human SLC4A5, Q9BY07

Row | Variant | effect of a mutation on the interaction
15 | F133V | with no effect

Variants of: B6
Conditions: with s4a5_human SLC4A5, Q9BY07
Remark: another data set of the same source

Row | Variant | effect of a mutation on the interaction
16 | F133L | with no effect

Variants of: B6
Conditions: with s4a5_human SLC4A5, Q9BY07
Remark: another data set of the same source

Row | Variant | effect of a mutation on the interaction
17 | Y87C | with no effect

Variants of: B6
Conditions: with s4a5_human SLC4A5, Q9BY07
Remark: another data set of the same source

Row | Variant | effect of a mutation on the interaction
18 | F102C | with no effect
